{
  "source": "patent US7425614B2",
  "about": "“Neuroprotective therapeutics preventing ERK/MAPK activation through the NMDA receptor” (Children's Medical Center Corporation, priority 2003, dated 2008)",
  "molecules": {"B1": {"name": "NR2B-BD: peptide of amino acids 886-1310 of the NR2B C-terminal domain that binds RasGRF1; used as NusA or EGFP fusion (protein)", "chain": "SPTATMNNTHSNILRLLRTAKNMANLSGVNGSPQSALDFIRRESSVYDISEHRRSFTHSDCKSYNNPPCEENLFSDYISEVERTFGNLQLKDSNVYQDHYHHHHRPHSIGSTSSIDGLYDCDNPPFTTQPRSISKKPLDIGLPSSKHSQLSDLYGKFSFKSDRYSGHDDLIRSDVSDISTHTVTYGNIEGNAAKRRKQQYKDSLKKRPASAKSRREFDEIELAYRRRPPRSPDHKRYFRDKEGLRDFYLDQFRTKENSPHWEHVDLTDIYKERSDDFKRDSVSGGGPCTNRSHLKHGTGEKHGVVGGVPAPWEKNLTNVDWEDRSGGNFCRSCPSKLHNYSSTVAGQNSGRQACIRCEACKKAGNLYDISKDNSLQELDQPAAPVAVTSNASSTKYPQSPTNSKAQKKNRNKLRRQHSYDTFVDL", "modifications": "left off: small tags and cut ends", "notes": "used as NusA or EGFP fusion"}},
  "key": {"RasGRF1": {"biological_target": "T1, RasGRF1 (Mus musculus, UniProt P27671)", "T1 construct": "In vitro translated full-length RasGRF1 and AU1-tagged NR2B fragments were coimmunopecipitated with AU1 antibody; made in house; host or cells: cell-free in vitro translation (TNT system, [35S]methionine)", "T1 sequence (P27671 1-1262)": "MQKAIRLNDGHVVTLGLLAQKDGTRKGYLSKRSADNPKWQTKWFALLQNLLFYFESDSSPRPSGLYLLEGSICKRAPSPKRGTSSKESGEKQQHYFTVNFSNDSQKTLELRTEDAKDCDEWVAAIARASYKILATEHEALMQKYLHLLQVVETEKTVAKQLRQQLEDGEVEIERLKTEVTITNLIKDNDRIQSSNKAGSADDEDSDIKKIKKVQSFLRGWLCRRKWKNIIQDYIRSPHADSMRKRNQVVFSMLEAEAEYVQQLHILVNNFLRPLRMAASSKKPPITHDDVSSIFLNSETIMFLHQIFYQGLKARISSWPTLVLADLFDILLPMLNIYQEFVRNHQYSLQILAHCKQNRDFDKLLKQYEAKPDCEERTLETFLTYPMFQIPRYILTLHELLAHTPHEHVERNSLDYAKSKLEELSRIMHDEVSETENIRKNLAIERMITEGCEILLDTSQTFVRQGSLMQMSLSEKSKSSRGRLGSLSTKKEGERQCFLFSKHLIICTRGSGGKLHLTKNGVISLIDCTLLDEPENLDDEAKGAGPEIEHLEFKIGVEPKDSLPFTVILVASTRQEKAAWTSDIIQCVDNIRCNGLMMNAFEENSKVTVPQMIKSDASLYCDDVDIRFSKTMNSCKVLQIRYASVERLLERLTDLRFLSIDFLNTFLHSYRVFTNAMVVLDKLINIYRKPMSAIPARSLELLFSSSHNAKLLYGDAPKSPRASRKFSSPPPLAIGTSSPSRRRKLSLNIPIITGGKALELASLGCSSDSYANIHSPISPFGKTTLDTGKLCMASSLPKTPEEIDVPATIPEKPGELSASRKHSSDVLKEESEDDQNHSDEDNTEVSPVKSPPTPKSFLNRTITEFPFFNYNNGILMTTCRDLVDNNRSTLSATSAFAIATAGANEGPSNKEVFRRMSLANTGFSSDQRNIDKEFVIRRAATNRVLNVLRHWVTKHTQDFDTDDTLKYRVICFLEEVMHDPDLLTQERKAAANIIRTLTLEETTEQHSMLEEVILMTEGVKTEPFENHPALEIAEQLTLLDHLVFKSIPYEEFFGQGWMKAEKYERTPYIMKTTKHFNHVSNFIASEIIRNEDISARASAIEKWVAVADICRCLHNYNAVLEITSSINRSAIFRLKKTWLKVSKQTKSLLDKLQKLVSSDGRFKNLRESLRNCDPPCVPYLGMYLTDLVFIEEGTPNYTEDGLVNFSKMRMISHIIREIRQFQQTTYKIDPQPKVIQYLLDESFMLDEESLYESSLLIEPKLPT", "assay": "pull-down / in vitro binding of NR2B fragments with in vitro translated RasGRF1", "from_the_text": "For in vitro translation, fragments of rat NR2B and rat RasGRF1 were made by PCR with 5′-primers containing AU1- and HA-tag encoding sequences; amplified sequences were subcloned into pcDNA3.1. For 293T transfection, the following cDNAs were used: mouse RasGRF1 in pcDNA3, GFP-rat NR2B, GFP rat NR2A in pcDNA1.1, and rat NR1 in pEGFP-C1 (Clontech). EGFP fusion constructs were made by subcloning cDNA fragments encoding different portions of NR2B and RasGRF1 into pEGFP-C1 (Clontech). EGFP fusion constructs were transferred from pEGFP into pSinRep5 and used for preparation of the Sindbis pseudovirus gene transfer system according to the manufacturer's protocol (Invitrogen, Carlsbad, Calif.).\nMouse RasGRF1 in pcDNA3 (Martegani, E., et al. (1992) EMBO J. 11, 2151-2157) was translated in vitro using the TNT system (Invitrogen) and [^35S]methionine. […]\nFor in vitro binding experiments, equimolar amounts of in vitro translated ^35S-labeled proteins (calculated from radioactivity of the excised protein band and cysteine content in the specific fragment) were incubated with a 3-fold molar excess of translated RasGRF1 for 30 min at 30° C., diluted with RIPA buffer, and immunoprecipitated with anti-HA-agarose (Santa Cruz). […]"}, "NMDA receptor": {"test_system": "NMDA receptor", "assay": "whole-cell recordings of NMDAR-mediated currents in cultured hippocampal neurons", "format": "cell-based, rat"}, "NR2B": {"test_system": "NR2B", "assay": "immunocytochemistry of NR2B and PSD-95 clusters in cultured neurons", "format": "cell-based, rat", "from_the_text": "Coverslips with cultured neurons were fixed with 4% paraformaldehyde, permeabilized with 0.3% Triton X-100, and blocked in 10% goat serum in PBS. A rabbit polyclonal antibody against the N terminus of the NR2B subunit of the NMDA receptor (AB1557P, Chemicon, Temecula, Calif.) was used for detection in neurons expressing GFP and RasGRF1-BD. These antibodies could not be used for study of the NR2B subunit distribution in neurons expressing NR2B-BD since they recognized the expressed construct. The distribution of NR2A/B subunit was determined using polyclonal antibody AB 1548 (Chemicon). A mouse monoclonal antibody (clone K 28/43, Upstate, Waltham, Mass.) was used to detect PSD-95. Secondary antibodies were the same as that used for detection of ERK and MAP2. To quantify the distribution of clusters in transfected cells, we first focused on dendrites of neurons expressing the EGFP fluorescent construct. Thereafter, fluorescent images of GFP, NR2B, and PSD-95 were acquired confocally (60×; NA 1.4 objective, zoom 5). Cluster density and brightness were analyzed with the MetaMorph Imaging System (Universal Imaging, Westchester, Pa.). Ten neurons were analyzed from each experiment (3-4 dendritic regions for each neuron)."}},
  "data": [
    {"molecule": "B1", "values": [
      {"measurement": "binding to RasGRF1 in vitro", "setting": "RasGRF1", "value": "bound"},
      {"measurement": "average amplitude of the whole-cell current induced by bath application of NMDA", "setting": "NMDA receptor; 100 μM NMDA, neurons expressing BD fusion constructs", "value": "did not affect"},
      {"measurement": "proportion of ifenprodil-sensitive (NR2B) current stimulated by NMDA bath application", "setting": "NMDA receptor; cultured neurons, 3 μM ifenprodil", "value": "neither RasGRF1-BD nor NR2B-BD expression changed"},
      {"measurement": "mean amplitude and kinetics of the spontaneous NMDAR-mediated excitatory postsynaptic currents", "setting": "NMDA receptor; neurons expressing BD fusion constructs", "value": "did not affect"},
      {"measurement": "average number NR2B-positive clusters", "setting": "NR2B; compared to cells expressing GFP alone", "value": "did not reveal any changes"},
      {"measurement": "localization or density of NR2B or PSD-95", "setting": "NR2B; cultured neurons expressing blocking peptides", "value": "did not change"}
    ]}
  ]
}
